Assay results published in the supplement of paper PMC10065799, “High-throughput profiling of sequence recognition by tyrosine kinases and SH2 domains using bacterial peptide display” (eLife, 2023).

Experiments:
AncSZ = test: phosphorylation enrichment, bacterial display (enrichment ratio); higher = better substrate or ligand; peptides without Tyr show the background
EPHB1 = EPHB1 (UniProt P54762); test: as above
EPHB2 = EPHB2 (UniProt P29323); test: as above
FGFR1 = FGFR1 (UniProt P11362); test: as above
FGFR3 = FGFR3 (UniProt P22607); test: as above
Sequence of FGFR3 (P22607 whole entry, looked up): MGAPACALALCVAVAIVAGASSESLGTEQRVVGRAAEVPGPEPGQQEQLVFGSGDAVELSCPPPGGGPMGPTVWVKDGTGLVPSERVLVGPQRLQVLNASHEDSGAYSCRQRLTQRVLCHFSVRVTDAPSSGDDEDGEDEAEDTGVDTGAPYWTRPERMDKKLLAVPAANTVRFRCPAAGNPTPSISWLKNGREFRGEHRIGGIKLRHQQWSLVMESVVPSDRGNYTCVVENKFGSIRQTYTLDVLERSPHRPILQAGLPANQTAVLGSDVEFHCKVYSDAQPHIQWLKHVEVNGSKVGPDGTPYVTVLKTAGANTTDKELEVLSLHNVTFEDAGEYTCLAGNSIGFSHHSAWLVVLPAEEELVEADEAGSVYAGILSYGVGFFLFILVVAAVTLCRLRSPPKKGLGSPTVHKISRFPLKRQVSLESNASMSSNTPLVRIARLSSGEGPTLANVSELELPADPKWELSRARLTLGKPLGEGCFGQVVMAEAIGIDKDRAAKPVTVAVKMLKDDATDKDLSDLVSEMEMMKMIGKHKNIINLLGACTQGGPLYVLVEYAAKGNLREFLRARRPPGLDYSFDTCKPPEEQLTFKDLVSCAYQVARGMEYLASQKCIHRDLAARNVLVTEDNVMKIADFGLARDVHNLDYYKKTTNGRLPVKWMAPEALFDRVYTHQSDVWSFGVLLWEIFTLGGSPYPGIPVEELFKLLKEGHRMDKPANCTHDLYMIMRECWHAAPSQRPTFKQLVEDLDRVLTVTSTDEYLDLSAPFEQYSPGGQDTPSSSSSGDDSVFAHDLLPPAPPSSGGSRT

Fer (mouse) = test: as above
Fes = Fes (UniProt P07332); test: as above
Sequence of Fes (P07332 whole entry, looked up): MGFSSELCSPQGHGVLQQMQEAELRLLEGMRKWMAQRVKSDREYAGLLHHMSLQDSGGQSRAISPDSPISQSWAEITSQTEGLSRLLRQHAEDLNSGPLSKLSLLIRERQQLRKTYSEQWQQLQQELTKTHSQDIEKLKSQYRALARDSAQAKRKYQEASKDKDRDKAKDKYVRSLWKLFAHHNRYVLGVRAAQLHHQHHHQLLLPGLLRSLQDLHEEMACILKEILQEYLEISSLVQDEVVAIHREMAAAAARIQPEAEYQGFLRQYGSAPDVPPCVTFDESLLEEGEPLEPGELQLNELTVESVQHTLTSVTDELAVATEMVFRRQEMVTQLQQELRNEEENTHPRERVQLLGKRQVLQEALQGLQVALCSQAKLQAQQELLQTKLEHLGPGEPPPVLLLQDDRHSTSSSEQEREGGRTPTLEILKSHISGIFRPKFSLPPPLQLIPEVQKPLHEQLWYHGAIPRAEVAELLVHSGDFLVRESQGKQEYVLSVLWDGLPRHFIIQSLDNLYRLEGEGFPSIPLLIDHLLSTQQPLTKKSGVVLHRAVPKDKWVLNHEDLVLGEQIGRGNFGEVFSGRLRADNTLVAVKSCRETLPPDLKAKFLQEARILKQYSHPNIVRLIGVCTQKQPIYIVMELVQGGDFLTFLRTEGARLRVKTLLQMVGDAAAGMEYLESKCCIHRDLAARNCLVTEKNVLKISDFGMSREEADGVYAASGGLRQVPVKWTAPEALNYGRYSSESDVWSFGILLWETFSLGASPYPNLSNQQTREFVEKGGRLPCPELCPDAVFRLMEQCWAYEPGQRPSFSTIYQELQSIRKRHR

Fyn = Fyn (UniProt P06241); test: as above
Sequence of Fyn (P06241 whole entry, looked up): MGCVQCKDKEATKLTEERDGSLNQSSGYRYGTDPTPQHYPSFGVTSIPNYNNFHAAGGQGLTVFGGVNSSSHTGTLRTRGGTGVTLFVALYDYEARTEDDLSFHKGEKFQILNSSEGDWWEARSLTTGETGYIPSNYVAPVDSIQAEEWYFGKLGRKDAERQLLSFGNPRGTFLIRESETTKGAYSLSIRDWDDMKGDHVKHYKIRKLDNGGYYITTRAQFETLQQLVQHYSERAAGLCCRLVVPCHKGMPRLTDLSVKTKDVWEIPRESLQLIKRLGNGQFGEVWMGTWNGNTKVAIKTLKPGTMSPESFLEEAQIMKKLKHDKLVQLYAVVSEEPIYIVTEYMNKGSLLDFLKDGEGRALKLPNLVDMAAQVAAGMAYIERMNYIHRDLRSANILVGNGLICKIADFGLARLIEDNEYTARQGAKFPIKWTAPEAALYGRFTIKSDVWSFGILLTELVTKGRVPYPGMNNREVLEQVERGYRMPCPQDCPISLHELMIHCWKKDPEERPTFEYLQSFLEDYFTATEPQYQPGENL

Hck = Hck (UniProt P08631); test: as above
Sequence of Hck (P08631 whole entry, looked up): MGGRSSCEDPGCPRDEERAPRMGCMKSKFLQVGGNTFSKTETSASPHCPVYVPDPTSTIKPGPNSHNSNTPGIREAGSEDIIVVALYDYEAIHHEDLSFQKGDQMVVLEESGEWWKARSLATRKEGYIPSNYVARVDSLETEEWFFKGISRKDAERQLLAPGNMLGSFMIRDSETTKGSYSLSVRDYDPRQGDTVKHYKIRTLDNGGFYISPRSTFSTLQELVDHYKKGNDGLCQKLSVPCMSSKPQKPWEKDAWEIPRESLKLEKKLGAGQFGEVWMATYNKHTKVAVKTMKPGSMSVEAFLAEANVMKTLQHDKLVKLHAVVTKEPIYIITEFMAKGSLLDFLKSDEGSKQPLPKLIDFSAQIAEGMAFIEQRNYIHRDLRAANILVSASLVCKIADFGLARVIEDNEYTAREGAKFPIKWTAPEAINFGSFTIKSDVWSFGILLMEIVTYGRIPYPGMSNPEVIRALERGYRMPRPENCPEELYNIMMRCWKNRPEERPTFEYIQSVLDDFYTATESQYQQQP

Jak2 = Jak2 (UniProt O60674); test: as above
MERTK = MERTK (UniProt Q12866); test: as above
c-Abl (mouse) = test: as above
c-Src = test: as above
Grb2 SH2 = Grb2 SH2 (UniProt P62993); test: SH2 binding enrichment of the phosphorylated peptide, bacterial display (enrichment ratio); higher = better substrate or ligand; peptides without Tyr show the background
Sequence of Grb2 SH2 (P62993 whole entry, looked up): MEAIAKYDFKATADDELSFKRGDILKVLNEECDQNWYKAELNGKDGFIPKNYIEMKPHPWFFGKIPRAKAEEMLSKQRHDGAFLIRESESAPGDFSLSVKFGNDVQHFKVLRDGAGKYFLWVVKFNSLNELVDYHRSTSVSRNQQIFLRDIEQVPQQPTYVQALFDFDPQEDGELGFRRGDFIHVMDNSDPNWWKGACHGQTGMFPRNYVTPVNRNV

SHP2-C SH2 = test: as above
c-Src SH2 = test: as above
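Throughout, for SH2 binding enrichment of the phosphorylated peptide, bacterial display: peptide library displayed on the E. coli surface as eCPX fusions, selected cells deep-sequenced, score is each peptide's frequency after selection divided by its frequency in the input.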
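Throughout, for phosphorylation enrichment, bacterial display: 11-residue human phosphosite peptides and single-mutation variants displayed on the E. coli surface, counted by deep sequencing, each peptide's frequency after selection divided by its frequency in the unselected input library; frequency after pTyr selection over input frequency; kinase dosed for 20-30% of maximal phosphorylation in three min.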

Sequence of EPHB1 (P54762 whole entry, looked up): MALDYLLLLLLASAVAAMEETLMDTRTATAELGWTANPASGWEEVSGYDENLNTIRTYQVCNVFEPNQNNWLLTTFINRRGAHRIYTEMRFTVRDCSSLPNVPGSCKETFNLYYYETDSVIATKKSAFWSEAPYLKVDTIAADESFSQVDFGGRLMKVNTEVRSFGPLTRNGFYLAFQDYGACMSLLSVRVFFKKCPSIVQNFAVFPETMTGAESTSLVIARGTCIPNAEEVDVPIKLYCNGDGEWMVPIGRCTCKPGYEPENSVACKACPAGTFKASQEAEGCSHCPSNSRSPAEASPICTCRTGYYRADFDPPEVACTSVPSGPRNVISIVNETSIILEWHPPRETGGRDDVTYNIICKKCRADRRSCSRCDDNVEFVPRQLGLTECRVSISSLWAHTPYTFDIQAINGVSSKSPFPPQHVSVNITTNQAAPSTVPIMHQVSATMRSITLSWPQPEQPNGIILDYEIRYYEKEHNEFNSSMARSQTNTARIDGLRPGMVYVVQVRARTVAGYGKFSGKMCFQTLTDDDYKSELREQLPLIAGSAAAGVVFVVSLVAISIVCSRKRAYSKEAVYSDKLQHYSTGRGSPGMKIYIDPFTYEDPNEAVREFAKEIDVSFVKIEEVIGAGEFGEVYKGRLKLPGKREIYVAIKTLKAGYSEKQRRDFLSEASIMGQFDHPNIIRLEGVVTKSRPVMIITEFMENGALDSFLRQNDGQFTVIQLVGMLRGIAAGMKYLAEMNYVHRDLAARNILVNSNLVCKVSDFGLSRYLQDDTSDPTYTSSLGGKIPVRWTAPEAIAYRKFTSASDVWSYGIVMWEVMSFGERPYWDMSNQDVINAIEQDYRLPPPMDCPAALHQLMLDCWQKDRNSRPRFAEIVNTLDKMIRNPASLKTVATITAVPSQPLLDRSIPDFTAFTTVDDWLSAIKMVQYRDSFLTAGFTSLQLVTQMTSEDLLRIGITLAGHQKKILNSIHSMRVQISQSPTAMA
Sequence of EPHB2 (P29323 whole entry, looked up): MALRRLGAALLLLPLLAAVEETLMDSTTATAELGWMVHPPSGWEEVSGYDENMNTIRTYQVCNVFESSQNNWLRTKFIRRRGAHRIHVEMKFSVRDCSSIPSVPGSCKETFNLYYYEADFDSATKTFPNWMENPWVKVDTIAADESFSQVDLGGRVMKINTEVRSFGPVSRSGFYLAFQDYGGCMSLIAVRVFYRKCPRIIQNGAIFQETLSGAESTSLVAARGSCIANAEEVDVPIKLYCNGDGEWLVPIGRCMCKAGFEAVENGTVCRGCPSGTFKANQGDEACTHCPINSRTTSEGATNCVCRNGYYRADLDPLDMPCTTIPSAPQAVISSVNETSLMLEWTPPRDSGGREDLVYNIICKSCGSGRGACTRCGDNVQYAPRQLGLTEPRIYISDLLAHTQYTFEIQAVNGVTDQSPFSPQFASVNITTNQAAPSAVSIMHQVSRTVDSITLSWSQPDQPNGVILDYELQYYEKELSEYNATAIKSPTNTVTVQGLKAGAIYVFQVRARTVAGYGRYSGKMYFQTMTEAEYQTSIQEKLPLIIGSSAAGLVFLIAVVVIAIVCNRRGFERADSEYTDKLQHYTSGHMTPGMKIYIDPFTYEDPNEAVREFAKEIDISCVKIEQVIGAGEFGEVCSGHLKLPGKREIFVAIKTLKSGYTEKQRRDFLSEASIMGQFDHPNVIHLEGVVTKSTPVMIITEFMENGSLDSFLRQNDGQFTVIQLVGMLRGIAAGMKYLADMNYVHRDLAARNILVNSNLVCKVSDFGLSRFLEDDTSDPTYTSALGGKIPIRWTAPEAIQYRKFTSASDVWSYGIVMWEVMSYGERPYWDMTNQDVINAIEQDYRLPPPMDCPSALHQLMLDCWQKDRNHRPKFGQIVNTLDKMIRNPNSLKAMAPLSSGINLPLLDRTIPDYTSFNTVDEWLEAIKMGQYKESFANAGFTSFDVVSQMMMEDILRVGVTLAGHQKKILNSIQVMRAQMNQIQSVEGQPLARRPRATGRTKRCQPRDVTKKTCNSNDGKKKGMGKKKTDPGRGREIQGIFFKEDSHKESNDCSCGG

| Sequence | phosphorylation enrichment (AncSZ) | phosphorylation enrichment (EPHB1) | phosphorylation enrichment (EPHB2) | phosphorylation enrichment (FGFR1) | phosphorylation enrichment (FGFR3) | phosphorylation enrichment (Fer (mouse)) | phosphorylation enrichment (Fes) | phosphorylation enrichment (Fyn) | phosphorylation enrichment (Hck) | phosphorylation enrichment (Jak2) | phosphorylation enrichment (MERTK) | phosphorylation enrichment (c-Abl (mouse)) | phosphorylation enrichment (c-Src) | SH2 binding enrichment (Grb2 SH2) | SH2 binding enrichment (SHP2-C SH2) | SH2 binding enrichment (c-Src SH2) |
| --- | --- | --- | --- | --- | --- | --- | --- | --- | --- | --- | --- | --- | --- | --- | --- | --- |
| LRSRVYEVPVE [SLC26A3_Y756_N753S] | 1.01 | 0.773 | 1.03 | 0.722 | 0.833 | 2.09 | 0.91 | 0.962 | 1.25 | 0.795 | 1.66 | 0.719 | 0.708 | 0.714 | 0.461 | 3.83 |
| IQKWEYVPLGT [FAH_Y244_P249T] | 0.954 | 0.768 | 0.532 | 1.06 | 0.723 | 0.416 | 0.866 | 0.475 | 0.428 | 1.23 | 0.328 | 0.564 | 0.384 | 0.837 | 0.497 | 0.817 |
| FLGEEYVKAVG [TF_Y674_YF] | 0.842 | 0.489 | 0.453 | 0.453 | 0.582 | 0.58 | 0.879 | 0.373 | 0.405 | 0.853 | 0.412 | 0.598 | 0.404 | 0.785 | 1.46 | 0.445 |
| FGSLLYKFAFK [FANCD2_Y458_YF] | 0.91 | 0.464 | 0.445 | 0.527 | 0.678 | 0.336 | 1.09 | 0.306 | 0.37 | 0.964 | 0.4 | 0.726 | 0.453 | 0.983 | 0.732 | 0.449 |
| SELVRYDARVH [MET_Y971] | 0.595 | 0.388 | 0.494 | 0.479 | 0.627 | 0.442 | 0.739 | 0.456 | 0.581 | 0.687 | 0.443 | 0.523 | 0.433 | 0.862 | 0.737 | 0.486 |
| FTRNYYVRAVL [CYBA_Y88] | 1.19 | 0.622 | 0.609 | 0.629 | 0.685 | 0.526 | 1.11 | 0.511 | 0.566 | 1.06 | 0.506 | 0.976 | 0.468 | 0.885 | 0.78 | 0.53 |
| TQNAVYSAANY [DDX5_Y535_G533A] | 0.643 | 2.46 | 3.99 | 0.586 | 0.619 | 2.8 | 0.924 | 8.89 | 11.1 | 0.527 | 5.57 | 4.56 | 6.96 | 0.88 | 0.956 | 0.708 |
| RLDGEYFTLQI [TP53_Y327_P322R] | 1.89 | 0.748 | 0.716 | 5.82 | 4.05 | 0.72 | 1.54 | 1.34 | 0.772 | 2.46 | 0.538 | 1.2 | 2.16 | 0.701 | 0.572 | 0.484 |
| RQQEDYLLFKQ [RARRES1_Y159_YF] | 1.57 | 1.11 | 0.978 | 1.45 | 1.28 | 0.637 | 1.85 | 0.68 | 1.16 | 1.39 | 0.516 | 0.924 | 0.576 | 0.892 | 0.838 | 0.571 |
| VGTKRYMASEV [ACVRL1_Y375_P378S] | 0.564 | 0.406 | 0.364 | 0.411 | 0.333 | 0.38 | 0.602 | 0.4 | 0.398 | 0.533 | 0.389 | 0.509 | 0.513 | 1.06 | 0.599 | 0.45 |
| TKDTFYKQPVF [GBA_Y451_M455V] | 0.634 | 0.409 | 0.523 | 0.406 | 0.473 | 0.308 | 0.766 | 0.386 | 0.312 | 0.695 | 0.417 | 0.764 | 0.421 | 0.905 | 0.66 | 0.417 |
| PPSLSYLSFEG [EXOSC3_Y143_A139P] | 0.756 | 0.556 | 0.448 | 0.595 | 0.713 | 0.451 | 0.886 | 0.464 | 0.517 | 1.36 | 0.602 | 0.702 | 1.1 | 1.07 | 0.814 | 0.504 |
| ALARKYHGGGG [HBB_Y146_H144R] | 0.372 | 0.418 | 0.307 | 0.353 | 0.33 | 0.444 | 0.408 | 0.365 | 0.317 | 0.507 | 0.337 | 0.407 | 0.435 | 0.8 | 0.549 | 0.536 |
| FFCKFYNKSED [RYR1_Y4864_R4861C] | 1.3 | 0.712 | 0.601 | 0.536 | 0.939 | 0.598 | 1.74 | 0.426 | 0.552 | 1.62 | 0.395 | 1.09 | 0.489 | 0.433 | 0.586 | 0.42 |
| FCRHNYGVGES [HLA-DRB1_Y112_V115G_YF] | 0.657 | 0.421 | 0.527 | 0.387 | 0.573 | 0.396 | 0.687 | 0.498 | 0.339 | 0.62 | 0.372 | 0.606 | 0.373 | 1.02 | 0.827 | 0.738 |
| QVMDGYPMPIG [MMP14_Y353] | 0.861 | 0.673 | 0.511 | 0.529 | 0.629 | 0.53 | 0.964 | 0.564 | 0.601 | 0.987 | 0.906 | 1.03 | 0.517 | 0.675 | 0.423 | 0.572 |
| RQQQDYWLIDV [ANPEP_Y600] | 3.3 | 8.95 | 4.64 | 20.6 | 17.4 | 3.21 | 1.6 | 0.847 | 0.625 | 2.43 | 4.02 | 1.32 | 1.47 | 1.07 | 0.913 | 0.586 |
| IALNSYHSRNC [IFNGR1_Y397] | 0.584 | 0.383 | 0.492 | 0.464 | 0.525 | 0.347 | 0.715 | 0.417 | 0.469 | 0.521 | 0.469 | 0.599 | 0.4 | 0.917 | 0.814 | 0.534 |
| ALMGLYHGQVL [HADHA_Y343] | 0.605 | 0.545 | 0.649 | 0.625 | 0.641 | 0.678 | 0.823 | 0.728 | 1.64 | 0.596 | 0.648 | 0.679 | 1.28 | 1.15 | 0.89 | 0.647 |
| TAIFIYIRPKA [OR10C1_Y258_L255I] | 1.79 | 0.414 | 0.68 | 0.518 | 0.814 | 0.584 | 1.39 | 0.615 | 0.481 | 1.46 | 0.387 | 0.641 | 0.521 | 1.17 | 0.796 | 0.522 |
| ENKGVYVLMSG [IVD_Y277] | 1.2 | 0.727 | 0.626 | 2.5 | 1.79 | 0.599 | 1.26 | 0.561 | 0.518 | 1.23 | 1.13 | 0.739 | 0.788 | 0.987 | 0.892 | 3.06 |
| FTNRNYDLDYD [MYC_Y12] | 1.13 | 0.666 | 0.637 | 0.69 | 0.591 | 0.58 | 1.12 | 0.607 | 0.594 | 1.3 | 0.58 | 0.713 | 0.586 | 0.799 | 0.517 | 3.05 |
| HSVLNYGVCVC [JAK2_Y613_L609S] | 0.91 | 0.87 | 0.905 | 0.674 | 0.84 | 0.692 | 1.57 | 0.564 | 0.62 | 1.17 | 0.482 | 0.925 | 0.595 | 0.853 | 0.929 | 0.584 |
| YVKEPYIQSRF [HIPK4_Y175] | 0.628 | 0.406 | 0.465 | 0.491 | 0.528 | 0.411 | 0.77 | 0.469 | 0.416 | 0.507 | 0.53 | 0.457 | 0.329 | 1.11 | 0.721 | 0.769 |
| FRQNGYIPGSN [PCDHGA1_Y895_V894G_YF] | 0.5 | 0.396 | 0.359 | 0.416 | 0.437 | 0.377 | 0.548 | 0.403 | 0.392 | 0.544 | 0.393 | 0.499 | 0.435 | 0.807 | 0.607 | 0.481 |
| STDDGCIDLQF [TMEM230_Y29_Y29C] | 1.14 | 0.492 | 0.636 | 0.613 | 0.797 | 0.55 | 1.13 | 0.56 | 0.665 | 0.979 | 0.646 | 0.668 | 0.503 | 0.939 | 0.815 | 0.76 |
| LGGAMYFLEAD [PKHD1_Y452_E457D_YF] | 1.01 | 0.535 | 0.701 | 0.461 | 0.77 | 0.517 | 1.09 | 0.717 | 0.581 | 1.03 | 0.536 | 0.682 | 0.772 | 0.768 | 0.698 | 0.667 |
| ARIVDYNIIGW [MYH7_Y588_G584R] | 0.808 | 0.542 | 0.662 | 0.81 | 0.839 | 0.406 | 0.846 | 0.545 | 0.56 | 0.671 | 0.454 | 0.561 | 0.445 | 0.735 | 0.607 | 0.874 |
| TLQSMYGCDLG [HLA-B_Y123_V127L] | 1.18 | 0.836 | 0.522 | 0.491 | 0.858 | 0.659 | 1.38 | 0.576 | 0.591 | 1.06 | 0.518 | 1.06 | 0.597 | 0.674 | 0.591 | 0.586 |
